# Experimental data reported in FireProtDB (doi:10.1002/pro.346).
# Details: Homo sapiens; pH 7.4; 25 °C; GdnHCl; CD; KPi 50 mM; structure 1TIT
Substance,ddG of mutation (higher = less stable),denaturant m value,denaturant midpoint (higher = more stable),unfolding free energy
"Titin Y12685P, Q8WZ42",2.2 kcal/mol,2.2 kcal/mol/M,1.7 M,3.7 kcal/mol
"Titin Y12685F, Q8WZ42",0.4 kcal/mol,2.2 kcal/mol/M,2.5 M,5.5 kcal/mol
"Titin Y12685G, Q8WZ42",0.8 kcal/mol,2.2 kcal/mol/M,2.3 M,5.1 kcal/mol
"Titin Y12685S, Q8WZ42",0.2 kcal/mol,2.2 kcal/mol/M,2.6 M,5.7 kcal/mol
